Results published in patent US6423503.

Target: α1antichymotrypsin (ACT) (UniProt P01011)
Sequence (P01011 24-423): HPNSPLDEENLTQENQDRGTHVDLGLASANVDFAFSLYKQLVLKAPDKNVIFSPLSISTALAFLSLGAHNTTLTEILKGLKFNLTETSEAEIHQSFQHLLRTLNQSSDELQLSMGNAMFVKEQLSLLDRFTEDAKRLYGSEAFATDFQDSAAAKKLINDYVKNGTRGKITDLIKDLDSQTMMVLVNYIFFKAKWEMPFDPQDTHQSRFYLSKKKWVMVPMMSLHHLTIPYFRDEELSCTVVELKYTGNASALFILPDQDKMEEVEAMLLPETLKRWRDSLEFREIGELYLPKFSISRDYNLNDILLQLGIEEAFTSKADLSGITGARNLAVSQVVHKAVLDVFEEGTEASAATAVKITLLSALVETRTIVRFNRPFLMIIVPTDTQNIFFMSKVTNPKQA

prostate-specific antigen (PSA), mature form
cleavage of ACT (HIC-HPLC peak 1): Peak 1 is inactive ACT which has been cleaved by PSA
